According to patent US20070231333A1, “ANTI-5T4 ANTIBODIES AND USES THEREOF” (Wyeth, priority 2006, published 2007):

Key:
MDAMB435/5T4 cells = assay: Modulation/internalization of antibodies by MDAMB435/5T4 cells (FACS); type: cell-based, human; conditions: 37° C., 4 or 24 hours, 4C
Method: FIGS. 4A-4C are line graphs that show modulation of H8, A1, A2, and A3 antibodies by MDAMB435/5T4 cells. […] MCF, mean cellular fluorescence; supt, supernatant.
To assess internalization of antibodies upon binding to 5T4 antigen, the amount of H8 and A1 antibodies detected at the cell surface versus in the supernatant was determined as a function of time. Non-enzymatically dissociated MDAMB435/5T4 cells (human breast cancer cells) were exposed to anti-5T4 antibodies for 1 hour at 4° C. Cells were washed and incubated in media at 37° C. for 4 hours or 24 hours. The amount of antibody bound to cellular membranes versus unbound antibody (i.e., presence in the supernatant) was determined using FACS.

human 5T4 antigen [1] = biological target: T1, human 5T4 antigen (Homo sapiens, UniProt Q13641); assay: BIACORE analysis of antibody binding to human 5T4 antigen immobilized on a CM5 chip; conditions: murine antibodies, Table 3
T1 sequence (Q13641 32-420): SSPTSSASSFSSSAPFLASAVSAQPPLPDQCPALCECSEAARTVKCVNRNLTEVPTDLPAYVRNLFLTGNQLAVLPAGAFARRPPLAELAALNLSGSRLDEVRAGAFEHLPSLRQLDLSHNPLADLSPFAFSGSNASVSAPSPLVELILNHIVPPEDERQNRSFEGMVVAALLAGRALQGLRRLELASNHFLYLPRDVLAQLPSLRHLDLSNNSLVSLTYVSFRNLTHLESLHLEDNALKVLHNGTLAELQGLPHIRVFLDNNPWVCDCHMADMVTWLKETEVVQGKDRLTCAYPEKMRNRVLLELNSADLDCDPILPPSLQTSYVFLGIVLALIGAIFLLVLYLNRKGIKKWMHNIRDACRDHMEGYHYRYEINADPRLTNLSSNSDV
Method: To assess the binding specificity and affinity of the A1, A2, and A3 antibodies, BIACORE® analysis was performed using human 5T4 antigen immobilized on a CM5 chip. BIACORE® technology utilizes changes in the refractive index at the surface layer upon binding of the antibody to the 5T4 antigen immobilized on the layer. Binding is detected by surface plasmon resonance (SPR) of laser light refracting from the surface. Analysis of the signal kinetics on rate and off rate allows discrimination between non-specific and specific interactions. The H8 anti-5T4 antibody was used as a control. H8 is a hybridoma-generated monoclonal mouse IgG1 antibody described in PCT International Publication No. WO 98/55607 and in Forsberg et al. (1997) J. Biol. Chem. 272(19):[…].
To assess the binding specificity and affinity of the chimeric and humanized H8, A1, A2, and A3 antibodies, BIACORE® analysis was performed using human 5T4 antigen immobilized on a CM5 chip. See Example 2.

human 5T4 antigen [2] = biological target: T1, human 5T4 antigen; assay: BIACORE competition assay: second antibody after saturation with first antibody; type: binding
Method: Epitope mapping of the H8, A1, A2, and A3 antibodies was also performed using BIACORE® using a CM5 chip with bound human 5T4 antigen. The chip was saturated with H8, A1, A2, or A3 antibody, and a first response was measured. The chip was then saturated with a second antibody from among the H8, A1, A2, and A3 antibodies, and a second response was measured. For multiple experiments, the chip was regenerated by dissociation of the bound antibodies in 10 mM glycine, pH 1.5, followed by a buffer wash. The percentages shown are the response units measured upon binding by a second antibody directly to the CM5 chip divided by the response units measured upon binding of the second antibody to a CM5 chip saturated with a first antibody.
The epitopes bound by the H8 and A3 antibodies are sterically close to each other such that the rate of association with antigen is decreased when binding of H8 is assayed in the presence of A3, and vice versa. Similar results were obtained using the chimeric and humanized H8, A1, A2, and A3 antibodies, which were prepared as described in Example 7 herein below.

[3] = test system: human/mouse 83-163 5T4 chimera; assay: Epitope mapping ELISA, human/mouse 5T4 chimeras; type: binding; set-up: key: +: binding; −: no binding; +/−: partial binding
Method: (§1) To identify the epitopes to which each of the A1, A2, A3, and H8 antibodies bind, ELISA assays were performed using (1) 5T4 ectodomain Fc constructs with deleted or mutated sequences, and (2) 5T4 chimera constructs transiently expressed in COS-1 cells. The ectodomain includes the amino-terminal region, two leucine-rich repeats, and the intervening hydrophilic region. Fusion proteins containing a 5T4 ectodomain and a Fc constant regions from human IgG1 were prepared using mouse 5T4 (amino acids 1-361), rat 5T4 (amino acids 1-361), cynomologous monkey 5T4 (amino acids 1-355), chimpanzee 5T4 (amino acids 1-355), and black-tailed marmoset (amino acids 1-355). The 5T4 chimera constructs are depicted in FIG. 5. The binding results are summarized in Table 5, which indicates specific binding, partial binding, or lack of binding, by each of the H8, A1, A2, and A3 antibodies.

[4] = test system: human/mouse 173-258 5T4 chimera; assay: Epitope mapping ELISA, human/mouse 5T4 chimeras; type: binding; set-up: key: +: binding; −: no binding; +/−: partial binding
Method: as §1

[5] = test system: human/mouse 282-361 5T4 chimera (with or without N-link at position 344); assay: Epitope mapping ELISA, human/mouse 5T4 chimeras; type: binding; set-up: key: +: binding; −: no binding; +/−: partial binding; conditions: human/mouse 282-361 (with or without N-link at position 344)
Method: as §1

[6] = biological target: T2, 5T4-expressing PC14PE6 cells (Homo sapiens, UniProt Q13641); assay: FACS binding to 5T4-expressing PC14PE6 cells; type: cell-based
T2 construct: endogenous in cells; host or cells: PC14PE6 cells
T2 sequence (Q13641 32-420): T1 sequence (Q13641 32-420)
Method: The ability of the H8, A1, A2, and A3 antibodies to bind cells expressing 5T4 antigen was assayed using fluorescence activated cell sorting (FACS) of PC14PE6 cells.

KA (human 5T4 antigen [1]): 6.5e+07 M⁻¹ | ka (human 5T4 antigen [1]): 56000 M⁻¹ s⁻¹ | kd (human 5T4 antigen [1]): 0.00087 s⁻¹ | Percentage Response of Second Antibody Following Saturation With First Antibody (human 5T4 antigen [2]; 1st antibody A1): 98% | Percentage Response of Second Antibody Following Saturation With First Antibody (human 5T4 antigen [2]; 1st antibody A3): 94% | binding to 5T4 antigen construct [3]: + | binding to 5T4 antigen construct [4]: + | binding to 5T4 antigen construct [5]: − | binding to 5T4-expressing PC14PE6 cells (in words) [6]: significantly lower
B1: A2: murine anti-5T4 monoclonal antibody (IgG2b heavy chain); VH residues 19-135 of SEQ ID NO:6, VL residues 23-130 of SEQ ID NO:8 (antibody, listed as Mus musculus, V domains shown)
VH: MEWRIFLFILSGTAGVHSQVQLQQSRPELVKPGASVKMSCKASGYTFTDYVISWVKQRTGQGLEWIGEIYPGSNSIYYNEKFKGRATLTADKSSSTAYMQLSSLTSEDSAVYFCAMGGNYGFDYWGQGTTLTVSS
VL: MDFQVQIFSFLLISASVIMSRGQIVLTQSPAIMSASLGERVTLTCTASSSVNSNYLHWYQQKPGSSPKLWIYSTSNLASGVPARFSGSGSGTSYSLTISSMEAEDAATYYCHQYHRSPLTFGAGTKLELK
modifications: (1)..(18) leader sequence; (19)..(135) heavy chain variable region; (44)..(53) CDR1; (68)..(84) CDR2; (117)..(124) CDR3; (1)..(22) leader sequence; (23)..(130) light chain variable region; (46)..(56) CDR1; (73)..(79) CDR2; (112)..(120) CDR3
levels of antibody at the cell surface (MDAMB435/5T4 cells; FIGS. 4A): decline over time | levels of antibody in the supernatant (MDAMB435/5T4 cells; FIGS. 4B): remain constant
